In article PMC8509808, “Characterization of the Chimeric PriB-SSBc Protein” (International Journal of Molecular Sciences, 2021):

Legend:
Conditions in all cases: protein: recombinant; tags: none (tag-free); chain copies: 2; label: 5'-32P
[1] = biological target: T1, PriB-SSBc (chimera KpPriB 1-98 fused to KpSSB 112-174) (Klebsiella pneumoniae, UniProt A6THB2 1-98+A6TGW7:112-174, internal_change); assay: EMSA; monomer conc.; 1 complex; EMSA: 20 mM Tris-HCl pH 8.0, 100 mM NaCl, 25 C, 30 min, 1.7 nM 32P-ssDNA; 8% native PAGE in TBE at 4 C
[2] = biological target: T1, PriB-SSBc (chimera KpPriB 1-98 fused to …); assay: EMSA; monomer conc.; 2 complexes; EMSA: 20 mM Tris-HCl pH 8.0, 100 mM NaCl, 25 C, 30 min, 1.7 nM 32P-ssDNA; 8% native PAGE in TBE at 4 C
[3] = biological target: T1, PriB-SSBc (chimera KpPriB 1-98 fused to …); assay: EMSA; ND; up to 5 uM protein; EMSA: 20 mM Tris-HCl pH 8.0, 100 mM NaCl, 25 C, 30 min, 1.7 nM 32P-ssDNA; 8% native PAGE in TBE at 4 C

## TTTTTTTTTTTTTTTTTTTTTTTTTTTTTTTTTTTTTTTT (ssDNA) [dT40]
[1]
  apparent K (half saturation): 840 ± 60 nM

## TTTTTTTTTTTTTTTTTTTTTTTTT (ssDNA) [dT25]
[1]
  apparent K (half saturation): 1150 ± 120 nM

B1: dT60 (ssDNA)
DNA: TTTTTTTTTTTTTTTTTTTTTTTTTTTTTTTTTTTTTTTTTTTTTTTTTTTTTTTTTTTT
[2]
  apparent K (half saturation): 230 ± 20 nM

## TTTTTTTTTTTTTTTTTTTT (ssDNA) [dT20]
[1]
  apparent K (half saturation): 2120 ± 180 nM

B2: dT55 (ssDNA)
DNA: TTTTTTTTTTTTTTTTTTTTTTTTTTTTTTTTTTTTTTTTTTTTTTTTTTTTTTT
[2]
  apparent K (half saturation): 330 ± 30 nM

## TTTTTTTTTTTTTTT (ssDNA) [dT15]
[3]
  binding result: no binding

## TTTTTTTTTTTTTTTTTTTTTTTTTTTTTTTTTTTTTTTTTTTTTTTTTT (ssDNA) [dT50]
[1]
  apparent K (half saturation): 290 ± 20 nM

## TTTTTTTTTTTTTTTTTTTTTTTTTTTTTT (ssDNA) [dT30]
[1]
  apparent K (half saturation): 940 ± 80 nM
